Measured values reported in paper PMC12232886, “Multiple and Alternative Sites Make Tau Protein an Adaptable Sticky Surface for the SH3 Domain of Fyn Kinase” (Angewandte Chemie (International Ed. in English), 2025).
Read-outs that look alike come from different tables or passages of the source.

Molecular target: T1, Fyn-SH3 (Homo sapiens, UniProt P06241)
T1 construct: 82-143) was cloned into the pET-TEV; His-tag (TEV-cleavable, pET-TEV vector) (N, cleaved yes); made in house; host or cells: E. coli BL21(DE3)
T1 sequence (P06241 82-143): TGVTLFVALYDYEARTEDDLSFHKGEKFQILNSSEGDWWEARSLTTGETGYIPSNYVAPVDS
Assay: Isothermal titration calorimetry (ITC), Fyn-SH3 titrated into Tau fragments
Type: binding
Settings: 20 mM potassium phosphate pH 6.8, 25 °C, error from data fitting
Excerpt: Figure 3 ITC analysis of Fyn‐SH3 binding to Tau. ITC measurements of Fyn‐SH3 titrated into Tau fragments 151–372 (a), 151–243 (b), 151–372 Δ175–179 (c), 151–372 Δ215–219 (d), 151–372 Δ175–179 Δ215–219 (e). The upper and lower panels show the raw thermograms (DP, differential power), and the integrated heats corrected for the heat of dilution (ΔH), respectively. The blue line in the latter panels represents the fit curve. […]
Isothermal Titration Calorimetry (ITC)
For ITC measurements, purified Fyn-SH3 and Tau proteins were dialyzed overnight against 20 mM potassium phosphate buffer (pH 6.8). Concentrations of proteins were measured using a NanoDrop instrument (Thermo Fisher Scientific), by using molar extinction coefficients at 280 nm. Calorimetric titrations were carried out on a MicroCal PEAQ-ITC instrument (Malvern) at 25 °C. The sample cell contained 20 μM Tau protein and the injection syringe 0.6 mM or 1 mM solution of Fyn-SH3. Only for the Tau mutant 151-372 Δ175-179 Δ215-219, the experiment was conducted with 60 μM Tau protein in the cell and 1.2 mM SH3 in the syringe. Titrations were carried out with a preliminary 0.4 μl injection, followed by 2 μl injections with time intervals of 150 sec, with stirring rate of 500 rpm and reference power of 10 μcal/sec. A blank titration (ligand into buffer) was recorded in the same experimental conditions and the dilution heats were subtracted to the data.
Binding isotherms were analyzed with the MicroCal PEAQ-ITC analysis software, using the two-sets of sites or the one-set of sites fitting models. […]

[1] = one-set of sites model, 20 μM Tau in cell, 0.6 mM or 1 mM SH3 in syringe, read-out: Kd

For “Tau 151–372: recombinant Tau fragment 151-372, his-tag cleaved, containing all three HSPRs”, the Kd (two-sets of sites model, site I, 20 μM Tau in cell, 0.6 mM or 1 mM SH3 in syringe, read-out: KdI) was 2.5 ± 1.1 µM, the Kd (two-sets of sites model, site II, 20 μM Tau in cell, 0.6 mM or 1 mM SH3 in syringe, listed as Tau151‐372, read-out: KdII) was 38 µM and the Kd (two-sets of sites model, site II, 20 μM Tau in cell, 0.6 mM or 1 mM SH3 in syringe, read-out: KdII) was 37.6 ± 22.7 µM.

Substance “Tau 151–372 Δ215‐219: Tau 151-372 deletion mutant lacking the PxxP motifs in HSPR2” has a Kd (one-set of sites model, 20 μM Tau in cell, 0.6 mM or 1 mM SH3 in syringe, listed as Tau 151–372 Δ215–219, read-out: Kd) of roughly 12 µM, a Kd (one-set of sites model, 20 μM Tau in cell, 0.6 mM or 1 mM SH3 in syringe, listed as Δ215–219, read-out: Kd) of 13 µM and a Kd [1] of 12.7 ± 4.4 µM.

“Tau 151–372 Δ175‐179 Δ215‐219: Tau 151-372 double deletion mutant lacking the PxxP motifs in HSPR1 and HSPR2” showed a Kd (two-sets of sites model, site I, 60 μM Tau in cell, 1.2 mM SH3 in syringe, listed as Δ175–179 Δ215–219, read-out: KdI) of 10 µM, a Kd (two-sets of sites model, site I, 60 μM Tau in cell, 1.2 mM SH3 in syringe, read-out: KdI) of 10.3 ± 2.2 µM and a Kd (two-sets of sites model, site II, 60 μM Tau in cell, 1.2 mM SH3 in syringe, read-out: KdII) of 347 ± 79 µM.

With “Tau 151–372 Δ175‐179: Tau 151-372 deletion mutant lacking the PxxP motifs in HSPR1” the Kd (one-set of sites model, 20 μM Tau in cell, 0.6 mM or 1 mM SH3 in syringe, listed as Δ175–179, read-out: Kd) was 12 µM and the Kd [1] was 12.2 ± 5.4 µM.

Substance “Tau 151–243: recombinant Tau fragment 151-243 lacking the HSPR3 and the MBD” has a Kd [1] of roughly 12 µM.
